Test in all cases: SPR; biotinylated PEAK proteins (with or without Src phosphorylation) captured with a biotin CAPture kit, CrkII NSH3 as analyte; Biacore 8K+, 20 °C, HBS-TP (150 mM NaCl); 1 M NaCl regeneration; steady state
Holding throughout (details): both partners purified
On the technique in general: In SPR one partner is held on a chip, and binding of the other changes the refractive index at the surface.

In experiment [1] the target is T1, full length PEAK3 (PEAK3^FL, residues 1-473), from insect cells, phosphorylated by Src (human, UniProt Q6ZS72 1-473, phosphoserine at S69; phosphotyrosine at Y24 (by Src in vitro, shown by MS/MS); other Src sites not stated; biotin (EZ-Link NHS-PEG4-Biotin, 1:1 molar ratio)).
T1 construct: As Sm27, with Src phosphorylation before immobilisation; also called PEAK3-FL (+ Src phosphorylation); source: Sf21 insect cells, purified as a complex with insect 14-3-3ε,ζ; phosphorylated in vitro with recombinant Src kinase domain
T1 sequence (looked up): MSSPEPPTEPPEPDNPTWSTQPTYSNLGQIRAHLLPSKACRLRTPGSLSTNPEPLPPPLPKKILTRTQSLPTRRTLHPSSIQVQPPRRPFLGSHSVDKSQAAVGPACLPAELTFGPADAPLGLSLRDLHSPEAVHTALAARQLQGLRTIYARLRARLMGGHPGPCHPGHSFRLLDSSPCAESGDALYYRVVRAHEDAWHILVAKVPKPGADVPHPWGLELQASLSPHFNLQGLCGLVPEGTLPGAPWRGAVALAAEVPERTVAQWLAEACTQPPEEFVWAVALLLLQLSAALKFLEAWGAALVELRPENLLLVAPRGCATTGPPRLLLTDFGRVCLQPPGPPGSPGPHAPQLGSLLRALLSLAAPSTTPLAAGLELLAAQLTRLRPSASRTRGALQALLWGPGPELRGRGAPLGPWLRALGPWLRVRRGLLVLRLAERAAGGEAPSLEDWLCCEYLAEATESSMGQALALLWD

In experiment [2] the target is T2, full length PEAK3 (PEAK3^FL, residues 1-473), from E. coli (human, UniProt Q6ZS72 1-473, biotin (EZ-Link NHS-PEG4-Biotin, 1:1 molar ratio)).
T2 construct: also called PEAK3-FL E.coli; source: E. coli C41 (DE3), purified (two-step purification)
T2 sequence (looked up): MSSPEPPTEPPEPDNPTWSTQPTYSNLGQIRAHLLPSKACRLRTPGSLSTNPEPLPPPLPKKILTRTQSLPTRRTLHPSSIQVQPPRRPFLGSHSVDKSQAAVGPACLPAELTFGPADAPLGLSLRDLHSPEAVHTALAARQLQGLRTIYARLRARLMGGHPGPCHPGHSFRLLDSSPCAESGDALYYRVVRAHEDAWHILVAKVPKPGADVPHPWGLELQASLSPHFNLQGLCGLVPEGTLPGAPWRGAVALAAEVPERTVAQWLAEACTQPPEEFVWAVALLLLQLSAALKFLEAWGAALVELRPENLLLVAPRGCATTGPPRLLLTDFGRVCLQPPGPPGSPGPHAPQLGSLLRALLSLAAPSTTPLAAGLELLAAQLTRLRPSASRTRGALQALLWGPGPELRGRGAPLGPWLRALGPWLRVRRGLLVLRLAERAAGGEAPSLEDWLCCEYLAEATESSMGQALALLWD

Experiment [3] has as its target T3, full length PEAK3 (PEAK3^FL, residues 1-473), from insect cells (human, UniProt Q6ZS72 1-473, phosphoserine at S69; biotin (EZ-Link NHS-PEG4-Biotin, 1:1 molar ratio)).
T3 construct: Immobilised as the complex with insect cell 14-3-3ε,ζ
T3 sequence (looked up): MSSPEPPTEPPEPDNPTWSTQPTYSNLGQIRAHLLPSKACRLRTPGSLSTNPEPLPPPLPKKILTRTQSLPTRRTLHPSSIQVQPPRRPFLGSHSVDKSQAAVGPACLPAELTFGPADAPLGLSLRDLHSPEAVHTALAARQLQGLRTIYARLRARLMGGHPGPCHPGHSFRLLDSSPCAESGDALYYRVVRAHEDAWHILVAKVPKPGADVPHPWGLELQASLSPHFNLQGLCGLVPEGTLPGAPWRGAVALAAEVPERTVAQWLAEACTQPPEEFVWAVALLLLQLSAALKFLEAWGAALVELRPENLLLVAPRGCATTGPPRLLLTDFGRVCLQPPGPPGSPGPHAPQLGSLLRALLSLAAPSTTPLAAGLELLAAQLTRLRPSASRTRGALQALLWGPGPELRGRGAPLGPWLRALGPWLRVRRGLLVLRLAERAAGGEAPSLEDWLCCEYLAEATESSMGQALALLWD

The target of experiment [4] is T4, PEAK1^IDR1 (residues 1082-1746), from insect cells (human, UniProt Q9H792 1082-1746, biotin (EZ-Link NHS-PEG4-Biotin, 1:1 molar ratio)).
T4 construct: human PEAK1, UniProt Q9H792, residues 1082-1746; Purifies as a homodimer; Phosphorylation at the tandem 14-3-3 motif was not observed
T4 sequence (looked up): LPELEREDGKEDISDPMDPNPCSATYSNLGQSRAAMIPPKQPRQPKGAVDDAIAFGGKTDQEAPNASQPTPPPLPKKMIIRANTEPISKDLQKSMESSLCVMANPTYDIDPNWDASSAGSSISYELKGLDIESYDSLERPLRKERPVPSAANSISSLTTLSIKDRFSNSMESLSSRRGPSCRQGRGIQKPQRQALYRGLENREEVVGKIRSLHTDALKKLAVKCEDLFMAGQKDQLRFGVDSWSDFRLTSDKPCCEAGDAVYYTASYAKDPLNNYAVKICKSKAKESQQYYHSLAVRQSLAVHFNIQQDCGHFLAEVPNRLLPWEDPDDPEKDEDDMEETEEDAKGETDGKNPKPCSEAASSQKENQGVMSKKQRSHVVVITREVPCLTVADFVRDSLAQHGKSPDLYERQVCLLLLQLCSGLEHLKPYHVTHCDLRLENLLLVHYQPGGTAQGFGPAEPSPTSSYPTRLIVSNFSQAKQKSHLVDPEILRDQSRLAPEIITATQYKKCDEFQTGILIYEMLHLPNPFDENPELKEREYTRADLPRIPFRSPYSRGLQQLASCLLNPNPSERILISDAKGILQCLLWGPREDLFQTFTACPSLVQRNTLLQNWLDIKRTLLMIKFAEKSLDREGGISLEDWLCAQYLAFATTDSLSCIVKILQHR

B1: CrkII N-terminal SH3 domain (CrkII^NSH3, residues 134-191) (domain or fragment, human, UniProt P46108-1 134-191, looked up)
chain: AEYVRALFDFNGNDEEDLPFKKGDILRIRDKPEEQWWNAEDSEGKRGMIPVPYVEKYR
notes: human CrkII NSH3 domain, UniProt P46108-1, residues 134-191; Amine coupled to a CM5 chip in a2; analyte in a4; in the syringe in ITC
In general, Kd refers to the free concentration of one partner at which half of the binding sites on the other are occupied at equilibrium, for simple one-to-one binding. For the molecule B1, the Kd in experiment [1] stood at 6.84 µM; in experiment [2], 9.6 µM; in experiment [3], 3.87 µM; in experiment [4] it was 3.7 µM.
